Assay results reported in patent US20160137740A1 (AstraZeneca / MedImmune, published 2016).
One block for each binder: values may come before it.

Experiments:
[1] = target: T1, Recombinant human TNFRSF9 (CD137) (human, UniProt Q07011 24-186, limits assumed); test: ELISA, plate coated with a dilution series of the recombinant TNFRSF protein [panel A]
T1 construct: Plate-adsorbed antigen of the ELISA
Method: (§1) An eight point, two-fold dilution series of each recombinant human TNFRSF protein was prepared after dilution of stock proteins to 5 μg/mL in PBS. Subsequently, 50 μL of each antigen dilution was transferred in duplicate to wells of a Nunc 96-well MaxiSorp flat bottom plate, and incubated overnight at 4° C. to adsorb proteins to the plate. Afterwards, plates were washed three times with PBS in a BioTek® plate washer to remove unbound protein. Anti OX40 mAb29, 9B12, and control antibodies were diluted in PBS to a final concentration of 10 μg/mL, and 50 μL of mAb were added to each well and incubated at room temperature for one hour to bind mAb to plate-bound protein. Thereafter, wells were washed with PBS/Tween-20 0.1% (volume/volume) using a BioTek® plate washer. HRP conjugated goat anti-human or goat anti-mouse secondary antibodies at 10 μg/mL was added to each well and incubated at room temperature for 1 hour. After three washes in PBS/Tween-20 0.1%, 50 μL of TMB substrate was added to each well and incubated at room temperature for 5 minutes to develop the colorimetric product. Reactions were stopped by adding 50 μL of 0.5 molar H₂SO₄ to wells, and plates read immediately at 450 nm using an Envision C plate reader for detection of the colorimetric product.

[2] = target: T2, Recombinant human TNFRSF1β (TNFRII) (human, UniProt P20333 23-257); test: as above
T2 construct: Plate-adsorbed antigen of the ELISA; also called TNFR2; TNFRSF1B
T2 sequence (looked up): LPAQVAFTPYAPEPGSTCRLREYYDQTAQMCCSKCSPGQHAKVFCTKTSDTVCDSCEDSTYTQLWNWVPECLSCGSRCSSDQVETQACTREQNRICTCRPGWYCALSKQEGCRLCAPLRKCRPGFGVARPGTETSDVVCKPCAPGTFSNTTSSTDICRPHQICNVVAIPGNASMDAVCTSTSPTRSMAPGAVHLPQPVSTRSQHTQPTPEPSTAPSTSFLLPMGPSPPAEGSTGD
Method: as §1

[3] = target: T3, Recombinant human TNFRSF11B (OPG) (human, UniProt O00300 22-401, limits assumed); test: as above
T3 construct: Plate-adsorbed antigen of the ELISA; also called osteoprotegerin
T3 sequence (looked up): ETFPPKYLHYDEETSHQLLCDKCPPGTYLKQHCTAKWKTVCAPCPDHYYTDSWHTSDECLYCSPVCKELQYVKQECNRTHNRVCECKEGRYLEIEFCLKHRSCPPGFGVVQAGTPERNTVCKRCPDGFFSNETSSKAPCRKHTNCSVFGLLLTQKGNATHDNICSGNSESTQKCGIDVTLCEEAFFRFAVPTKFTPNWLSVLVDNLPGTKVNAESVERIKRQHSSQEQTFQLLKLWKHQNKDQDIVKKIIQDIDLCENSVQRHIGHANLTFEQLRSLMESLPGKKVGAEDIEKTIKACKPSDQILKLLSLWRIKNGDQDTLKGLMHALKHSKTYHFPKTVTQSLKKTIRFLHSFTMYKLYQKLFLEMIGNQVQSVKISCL
Method: as §1

[4] = target: T4, Recombinant human TNFRSF21 (DR6) (human, UniProt O75509 42-349, limits assumed); test: as above
T4 construct: Plate-adsorbed antigen of the ELISA
T4 sequence (looked up): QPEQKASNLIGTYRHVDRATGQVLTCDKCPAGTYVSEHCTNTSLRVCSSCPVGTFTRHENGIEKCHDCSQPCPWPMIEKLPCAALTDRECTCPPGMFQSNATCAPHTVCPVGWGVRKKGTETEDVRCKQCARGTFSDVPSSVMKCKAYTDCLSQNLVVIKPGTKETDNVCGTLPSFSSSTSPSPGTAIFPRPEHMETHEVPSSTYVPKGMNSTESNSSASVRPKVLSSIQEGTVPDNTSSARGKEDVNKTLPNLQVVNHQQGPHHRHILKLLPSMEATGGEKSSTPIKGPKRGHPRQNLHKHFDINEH
Method: as §1

[5] = target: T5, Recombinant human TNFRSF14 (HVEM) (human, UniProt Q92956 39-202, limits assumed); test: as above
T5 construct: Plate-adsorbed antigen of the ELISA
T5 sequence (looked up): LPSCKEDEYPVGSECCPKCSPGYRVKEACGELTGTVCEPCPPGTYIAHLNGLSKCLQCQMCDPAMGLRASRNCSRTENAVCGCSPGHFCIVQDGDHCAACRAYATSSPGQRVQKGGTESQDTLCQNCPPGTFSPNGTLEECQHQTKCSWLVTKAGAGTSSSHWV
Method: as §1

[6] = target: T6, Recombinant human TNFRSF16 (NGFR) (human, UniProt P08138 29-250); test: as above
T6 construct: Plate-adsorbed antigen of the ELISA
T6 sequence (looked up): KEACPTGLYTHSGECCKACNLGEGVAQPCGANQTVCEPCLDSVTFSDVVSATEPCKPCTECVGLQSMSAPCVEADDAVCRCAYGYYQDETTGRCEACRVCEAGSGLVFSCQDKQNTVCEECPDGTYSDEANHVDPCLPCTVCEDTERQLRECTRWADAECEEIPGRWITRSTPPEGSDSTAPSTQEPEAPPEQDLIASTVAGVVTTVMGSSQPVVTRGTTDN
Method: as §1

[7] = target: T7, Recombinant human TNFRSF3 (LTβR) (human, UniProt P36941 28-227, limits assumed); test: as above
T7 construct: Plate-adsorbed antigen of the ELISA
Method: as §1

[8] = target: T8, Recombinant human TNFRSF11A (RANK) (human, UniProt Q9Y6Q6 30-212); test: as above
T8 construct: Plate-adsorbed antigen of the ELISA; also called CD265
T8 sequence (looked up): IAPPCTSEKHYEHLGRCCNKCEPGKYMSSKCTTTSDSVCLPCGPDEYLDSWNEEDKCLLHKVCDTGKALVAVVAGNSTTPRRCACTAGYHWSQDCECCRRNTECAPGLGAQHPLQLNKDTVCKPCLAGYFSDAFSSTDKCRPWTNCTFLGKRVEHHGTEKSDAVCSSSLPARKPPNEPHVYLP
Method: as §1

[9] = target: T9, Recombinant human TNFRSF6 (FAS) (human, UniProt P25445 26-173); test: as above
T9 construct: Plate-adsorbed antigen of the ELISA
T9 sequence (looked up): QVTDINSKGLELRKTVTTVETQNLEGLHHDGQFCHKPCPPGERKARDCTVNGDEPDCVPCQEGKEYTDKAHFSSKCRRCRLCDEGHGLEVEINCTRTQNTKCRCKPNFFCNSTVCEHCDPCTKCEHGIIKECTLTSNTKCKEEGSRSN
Method: as §1

[10] = target: T10, Recombinant human TNFRSF5 (CD40) (human, UniProt P25942 21-193); test: as above
T10 construct: Plate-adsorbed antigen of the ELISA
Method: as §1

[11] = target: T11, Recombinant human TNFRSF18 (GITR) (human, UniProt Q9Y5U5 26-162, limits assumed); test: as above
T11 construct: Plate-adsorbed antigen of the ELISA
T11 sequence (looked up): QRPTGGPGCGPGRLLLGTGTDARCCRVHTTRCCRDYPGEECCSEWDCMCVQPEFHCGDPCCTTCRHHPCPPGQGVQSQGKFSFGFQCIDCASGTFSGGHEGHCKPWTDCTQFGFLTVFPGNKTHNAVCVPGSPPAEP
Method: as §1

[12] = target: T12, Mouse OX40 (mouse, UniProt P47741 20-272); test: flow cytometry on activated primary mouse CD4+ T cells
T12 construct: also called mOX40; murine OX40
T12 sequence: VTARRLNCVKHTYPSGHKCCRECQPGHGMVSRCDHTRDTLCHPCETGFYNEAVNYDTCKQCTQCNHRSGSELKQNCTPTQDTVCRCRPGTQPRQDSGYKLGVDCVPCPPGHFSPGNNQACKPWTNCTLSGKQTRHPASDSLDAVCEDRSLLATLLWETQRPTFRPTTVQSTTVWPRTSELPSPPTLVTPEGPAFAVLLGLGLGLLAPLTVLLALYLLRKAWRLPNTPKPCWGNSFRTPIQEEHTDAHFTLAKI
Method: Mouse CD4⁺ T cells (150,000 per well in 100 μL complete medium) were cultured overnight in 96-well plates coated with 2 μg/mL each hamster anti-mouse CD3 and hamster anti-mouse CD28 antibodies to activate T cells and induce OX40 expression. Activated CD4⁺ T cells were removed from the incubation plate and 100,000 cells were transferred to each well of a non-tissue culture-treated 96-well round-bottom plate for binding assays and washed once with FACS buffer. Binding was performed with 10 μg/mL of OX40mAb24, 9B12 and rat anti-mouse OX40, clone OX86 (positive control) antibodies each serially diluted 3-fold in FACS buffer for a 10-point data curve. For negative controls, 10 μg/mL R347 human IgG1, MOPC-21 mouse IgG1 or RTK2071 rat IgG1 were diluted 6-fold for a 3 point data curve. FACS buffer (50 μL) containing OX40mAb24, or antibodies, was added to CD4⁺ T cells in duplicate and incubated. Following primary incubation, cells were washed with 200 μL of 4° C. […] Following secondary antibody incubation, cells were washed with 4° C. FACS buffer (200 μL per wash) and suspended in 100 μL FACS buffer for flow cytometry analysis on a BD LSRII flow cytometer as described in Section 2.3.

T7 sequence (P36941 28-227 limits assumed): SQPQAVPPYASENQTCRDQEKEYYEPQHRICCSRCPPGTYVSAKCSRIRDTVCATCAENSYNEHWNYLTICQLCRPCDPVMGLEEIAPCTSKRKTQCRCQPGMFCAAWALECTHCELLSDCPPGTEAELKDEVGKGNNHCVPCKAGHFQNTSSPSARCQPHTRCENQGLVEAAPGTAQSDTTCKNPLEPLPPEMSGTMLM
T10 sequence (P25942 21-193 limits assumed): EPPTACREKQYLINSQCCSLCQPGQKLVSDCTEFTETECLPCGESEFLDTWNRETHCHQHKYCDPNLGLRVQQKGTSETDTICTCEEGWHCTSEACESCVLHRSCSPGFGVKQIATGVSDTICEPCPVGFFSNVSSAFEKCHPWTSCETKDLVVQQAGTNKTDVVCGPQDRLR

binding result [1]: no binding
binding result [2]: no binding
binding result [3]: no binding
binding result [4]: no binding
binding result [5]: no binding
binding result [6]: no binding
binding result [7]: no binding
binding result [8]: no binding
binding result [9]: no binding
binding result [10]: no binding
binding result [11]: no binding
B1: OX40mAb29 (antibody, human IgG1, kappa)
heavy: QVQLQESGPGLVKPSQTLSLTCAVYGGSFSSGYWNWIRKHPGKGLEYIGYISYNGITYHNPSLKSRITINRDTSKNQYSLQLNSVTPEDTAVYYCARYKYDYDGGHAMDYWGQGTLVTVSSASTKGPSVFPLAPSSKSTSGGTAALGCLVKDYFPEPVTVSWNSGALTSGVHTFPAVLQSSGLYSLSSVVTVPSSSLGTQTYICNVNHKPSNTKVDKRVEPKSCDKTHTCPPCPAPEFEGGPSVFLFPPKPKDTLMISRTPEVTCVVVDVSHEDPEVKFNWYVDGVEVHNAKTKPREEQYNSTYRVVSVLTVLHQDWLNGKEYKCKVSNKALPASIEKTISKAKGQPREPQVYTLPPSREEMTKNQVSLTCLVKGFYPSDIAVEWESNGQPENNYKTTPPVLDSDGSFFLYSKLTVDKSRWQQGNVFSCSVMHEALHNHYTQKSLSLSPGK
light: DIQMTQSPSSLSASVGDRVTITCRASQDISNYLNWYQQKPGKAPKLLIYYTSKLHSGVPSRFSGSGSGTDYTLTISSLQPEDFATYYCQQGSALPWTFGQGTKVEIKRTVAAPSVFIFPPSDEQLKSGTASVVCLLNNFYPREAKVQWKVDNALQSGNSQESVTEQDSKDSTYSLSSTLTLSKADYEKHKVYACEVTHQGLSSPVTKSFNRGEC
notes: also called Anti OX40 mAb29; IgG1 triple mutant (IgG1-TM) version of OX40mAb24

binding result [12]: binds
B2: Rat anti-mouse OX40, clone OX86 (antibody, V domains shown)
VH: QVQLKESGPGLVQPSQTLSLTCTVSGFSLTGYNLHWVRQPPGKGLEWMGRMRYDGDTYYNSVLKSRLSISRDTSKNQVFLKMNSLQTDDTAIYYCTRDGRGDSFDYWGQGVMVTVSS
VL: DIVMTQGALPNPVPSGESASITCRSSQSLVYKDGQTYLNWFLQRPGQSPQLLTYWMSTRASGVSDRFSGSGSGTYFTLKISRVRAEDAGVYYCQQVREYPFTFGSGTKLEIK
notes: Rat IgG1κ; also called anti-mouse CD134 (OX86 clone) antibody
